Assay results taken from the supplement of paper PMC5998384.

How the values were obtained:
HeLa Kyoto [1] = assay: solubility in G1/S (NP-40 vs SDS abundance) (log2 ratio); higher = more soluble; conditions: cell cycle stage: G1/S
HeLa Kyoto [2] = assay: solubility change mitosis vs G1/S (difference of NP-40 vs SDS log2 ratios) (log2 ratio difference); higher = more soluble in mitosis
HeLa Kyoto [3] = assay: thermal stability score vs G1/S (z-score of summed log2 fold changes over temperatures); higher = more thermally stable than in G1/S
HeLa Kyoto [4] = assay: melting temperature (median over replicates), in situ; higher = more thermally stable
[5] = cell cycle stage: early G1 (4.5 h after nocodazole release)
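Throughout, for melting temperature (median over replicates), in situ: HeLa Kyoto cells synchronized by double thymidine or nocodazole block, proteins quantified by TMT10plex mass spectrometry, three independent biological replicates.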
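Throughout, for solubility change mitosis vs G1/S (difference of NP-40 vs SDS log2 ratios): synchronized HeLa Kyoto cells (double thymidine block for G1/S, nocodazole release for mitosis), protein amounts in NP-40 versus SDS lysates quantified by mass spectrometry, three biological replicates.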
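Throughout, for solubility in G1/S (NP-40 vs SDS abundance): HeLa Kyoto cells arrested at G1/S by double thymidine block, proteins quantified by TMT10plex mass spectrometry in mild NP-40 versus SDS extracts, three biological replicates.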
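Throughout, for thermal stability score vs G1/S (z-score of summed log2 fold changes over temperatures): synchronized HeLa Kyoto cells, proteins quantified by TMT10plex mass spectrometry, three biological replicates, mitosis taken 0.5 h after nocodazole release, G1/S directly after double thymidine block.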

Row | Sequence | solubility in G1/S (log2) (HeLa Kyoto [1]) | solubility change mitosis (log2) (HeLa Kyoto [2]) | thermal stability score (HeLa Kyoto [3]; [5]) | thermal stability score (HeLa Kyoto [3]; cell cycle stage: mitosis) | melting temperature (HeLa Kyoto [4]; cell cycle stage: G1/S) | melting temperature (HeLa Kyoto [4]; cell cycle stage: mitosis)
1 | MMTSVSSDHCRGAREKPQISAAQSTQPQKQVVQATAEQMRLAQVIFDKNDSDFEAKVKQLMEVTGKNQDECIVALHDCNGDVNKAINILLEGNSDTTSWETVGCKKKNFAKENSENKENREKKSEKESSRGRGNNNRKGRGGNRGREFRGEENGIDCNQVDKPSDRGKRARGRGFGRGRGRGAGRFSTQGMGTFNPADYSDSTSTDVCGTKLVVWEAAQNGADEGTELASNTHNIAQDLSNKSSYGLKGAWKNSVEEWTTEDWTEDLSETKVFTASSAPAENHILPGQSIDLVALLQKPVPHSQASEANSFETSQQQGFGQALVFTNSQHNNQMAPGTGSSTAVNSCSPQSLSSVLGSGFGELAPPKMANITSSQILDQLKAPSLGQFTTTPSTQQNSTSHPTTTTSWDLKPPTSQSSVLSHLDFKSQPEPSPVLSQLSQRQQHQSQAVTVPPPGLESFPSQAKLRESTPGDSPSTVNKLLQLPSTTIENISVSVHQPQPKHIKLAKRRIPPASKIPASAVEMPGSADVTGLNVQFGALEFGSEPSLSEFGSAPSSENSNQIPISLYSKSLSEPLNTSLSMTSAVQNSTYTTSVITSCSLTSSSLNSASPVAMSSSYDQSSVHNRIPYQSPVSSSESAPGTIMNGHGGGRSQQTLDTPKTTGPPSALPSVSSLPSTTSCTALLPSTSQHTGDLTSSPLSQLSSSLSSHQSSLSAHAALSSSTSHTHASVESASSHQSSATFSTAATSVSSSASSGASLSSSMNTANSLCLGGTPASASSSSSRAAPLVTSGKAPPNLPQGVPPLLHNQYLVGPGGLLPAYPIYGYDELQMLQSRLPVDYYGIPFAAPTALASRDGSLANNPYPGDVTKFGRGDSASPAPATTPAQPQQSQSQTHHTAQQPFVNPALPPGYSYTGLPYYTGMPSAFQYGPTMFVPPASAKQHGVNLSTPTPPFQQASGYGQHGYSTGYDDLTQGTAAGDYSKGGYAGSSQAPNKSAGSGPGKGVSVSSSTTGLPDMTGSVYNKTQTFDKQGFHAGTPPPFSLPSVLGSTGPLASGAAPGYAPPPFLHILPAHQQPHSQLLHHHLPQDAQSGSGQRSQPSSLQPKSQASKPAYGNSPYWTN [UBAP2] | 0.0134 | -0.0536 | -3.11 | -3.84 | 57.3 °C | 56.8 °C
2 | MNAAASSYPMASLYVGDLHSDVTEAMLYEKFSPAGPVLSIRVCRDMITRRSLGYAYVNFQQPADAERALDTMNFDVIKGKPIRIMWSQRDPSLRKSGVGNVFIKNLDKSIDNKALYDTFSAFGNILSCKVVCDENGSKGYAFVHFETQEAADKAIEKMNGMLLNDRKVFVGRFKSRKEREAELGAKAKEFTNVYIKNFGEEVDDESLKELFSQFGKTLSVKVMRDPNGKSKGFGFVSYEKHEDANKAVEEMNGKEISGKIIFVGRAQKKVERQAELKRKFEQLKQERISRYQGVNLYIKNLDDTIDDEKLRKEFSPFGSITSAKVMLEDGRSKGFGFVCFSSPEEATKAVTEMNGRIVGSKPLYVALAQRKEERKAHLTNQYMQRVAGMRALPANAILNQFQPAAGGYFVPAVPQAQGRPPYYTPNQLAQMRPNPRWQQGGRPQGFQGMPSAIRQSGPRPTLRHLAPTGSECPDRLAMDFGGAGAAQQGLTDSCQSGGVPTAVQNLAPRAAVAAAAPRAVAPYKYASSVRSPHPAIQPLQAPQPAVHVQGQEPLTASMLAAAPPQEQKQMLGERLFPLIQTMHSNLAGKITGMLLEIDNSELLHMLESPESLRSKVDEAVAVLQAHHAKKEAAQKVGAVAAATS [PABPC4] | 0.0374 | 0.0456 | -1.92 | -1.27 | 50.3 °C | 49.6 °C
3 | MNEAMATDSPRRPSRCTGGVVVRPQAVTEQSYMESVVTFLQDVVPQAYSGTPLTEEKEKIVWVRFENADLNDTSRNLEFHEIHSTGNEPPLLIMIGYSDGMQVWSIPISGEAQELFSVRHGPIRAARILPAPQFGAQKCDNFAEKRPLLGVCKSIGSSGTSPPYCCVDLYSLRTGEMVKSIQFKTPIYDLHCNKRILVVVLQEKIAAFDSCTFTKKFFVTSCYPCPGPNMNPIALGSRWLAYAENKLIRCHQSRGGACGDNIQSYTATVISAAKTLKSGLTMVGKVVTQLTGTLPSGVTEDDVAIHSNSRRSPLVPGIITVIDTETVGEGQVLVSEDSDSDGIVAHFPAHEKPVCCMAFNTSGMLLVTTDTLGHDFHVFQILTHPWSSSQCAVHHLYTLHRGETEAKVQDICFSHDCRWVVVSTLRGTSHVFPINPYGGQPCVRTHMSPRVVNRMSRFQKSAGLEEIEQELTSKQGGRCSPVPGLSSSPSGSPLHGKLNSQDSYNNFTNNNPGNPRLSPLPSLMVVMPLAQIKQPMTLGTITKRTGPYLFGAGCFSIKAPCKVKPPPQISPSKSMGGEFCVAAIFGTSRSWFANNAGLKREKDQSKQVVVESLYIISCYGTLVEHMMEPRPLSTAPKISDDTPLEMMTSPRASWTLVRTPQWNELQPPFNANHPLLLAADAVQYYQFLLAGLVPPGSPGPITRHGSYDSLASDHSGQEDEEWLSQVEIVTHTGPHRRLWMGPQFQFKTIHPSGQTTVISSSSSVLQSHGPSDTPQPLLDFDTDDLDLNSLRIQPVRSDPVSMPGSSRPVSDRRGVSTVIDAASGTFDRSVTLLEVCGSWPEGFGLRHMSSMEHTEEGLRERLADAMAESPSRDVVGSGTELQREGSIETLSNSSGSTSGSIPRNFDGYRSPLPTNESQPLSLFPTGFP [BCAS3] | -0.0403 | -0.229 | -0.731 | -1.02 | 52.9 °C | 52.2 °C
4 | MNEEYDVIVLGTGLTECILSGIMSVNGKKVLHMDRNPYYGGESASITPLEDLYKRFKIPGSPPESMGRGRDWNVDLIPKFLMANGQLVKMLLYTEVTRYLDFKVTEGSFVYKGGKIYKVPSTEAEALASSLMGLFEKRRFRKFLVYVANFDEKDPRTFEGIDPKKTTMRDVYKKFDLGQDVIDFTGHALALYRTDDYLDQPCYETINRIKLYSESLARYGKSPYLYPLYGLGELPQGFARLSAIYGGTYMLNKPIEEIIVQNGKVIGVKSEGEIARCKQLICDPSYVKDRVEKVGQVIRVICILSHPIKNTNDANSCQIIIPQNQVNRKSDIYVCMISFAHNVAAQGKYIAIVSTTVETKEPEKEIRPALELLEPIEQKFVSISDLLVPKDLGTESQIFISRTYDATTHFETTCDDIKNIYKRMTGSEFDFEEMKRKKNDIYGED [GDI2] | 0.218 | -0.174 | -1.03 | -0.13 | 55.2 °C | 54.7 °C
5 | MNFLRGVMGGQSAGPQHTEAETIQKLCDRVASSTLLDDRRNAVRALKSLSKKYRLEVGIQAMEHLIHVLQTDRSDSEIIGYALDTLYNIISNEEEEEVEENSTRQSEDLGSQFTEIFIKQQENVTLLLSLLEEFDFHVRWPGVKLLTSLLKQLGPQVQQIILVSPMGVSRLMDLLADSREVIRNDGVLLLQALTRSNGAIQKIVAFENAFERLLDIISEEGNSDGGIVVEDCLILLQNLLKNNNSNQNFFKEGSYIQRMKPWFEVGDENSGWSAQKVTNLHLMLQLVRVLVSPTNPPGATSSCQKAMFQCGLLQQLCTILMATGVPADILTETINTVSEVIRGCQVNQDYFASVNAPSNPPRPAIVVLLMSMVNERQPFVLRCAVLYCFQCFLYKNQKGQGEIVSTLLPSTIDATGNSVSAGQLLCGGLFSTDSLSNWCAAVALAHALQENATQKEQLLRVQLATSIGNPPVSLLQQCTNILSQGSKIQTRVGLLMLLCTWLSNCPIAVTHFLHNSANVPFLTGQIAENLGEEEQLVQGLCALLLGISIYFNDNSLESYMKEKLKQLIEKRIGKENFIEKLGFISKHELYSRASQKPQPNFPSPEYMIFDHEFTKLVKELEGVITKAIYKSSEEDKKEEEVKKTLEQHDNIVTHYKNMIREQDLQLEELRQQVSTLKCQNEQLQTAVTQQVSQIQQHKDQYNLLKIQLGKDNQHQGSYSEGAQMNGIQPEEIGRLREEIEELKRNQELLQSQLTEKDSMIENMKSSQTSGTNEQSSAIVSARDSEQVAELKQELATLKSQLNSQSVEITKLQTEKQELLQKTEAFAKSVEVQGETETIIATKTTDVEGRLSALLQETKELKNEIKALSEERTAIKEQLDSSNSTIAILQTEKDKLELEITDSKKEQDDLLVLLADQDQKILSLKNKLKDLGHPVEEEDELESGDQEDEDDESEDPGKDLDHI [USO1] | 0.289 | -0.0652 | 2.79 | 1.73 | 51.2 °C | 50.6 °C
6 | MNFRQLLLHLPRYLGASGSPRRLWWSPSLDTISSVGSWRGRSSKSPAHWNQVVSEAEKIVGYPTSFMSLRCLLSDELSNIAMQVRKLVGTQHPLLTTARGLVHDSWNSLQLRGLVVLLISKAAGPSSVNTSCQNYDMVSGIYSCQRSLAEITELIHIALLVHRGIVNLNELQSSDGPLKDMQFGNKIAILSGDFLLANACNGLALLQNTKVVELLASALMDLVQGVYHENSTSKESYITDDIGISTWKEQTFLSHGALLAKSCQAAMELAKHDAEVQNMAFQYGKHMAMSHKINSDVQPFIKEKTSDSMTFNLNSAPVVLHQEFLGRDLWIKQIGEAQEKGRLDYAKLRERIKAGKGVTSAIDLCRYHGNKALEALESFPPSEARSALENIVFAVTRFS [PDSS2] | 0.217 | 0.169 | 0.42 | -0.202 | 53.5 °C | 54.1 °C
